Experimental data published in article PMC3567243 (Molecular Microbiology, 2012).
Like-named read-outs stand apart in the source and are kept apart here.

Columns and labels:
[1] = target: Ddn (Mycobacterium tuberculosis, UniProt P9WP15); assay: F420H2 oxidation, absorbance at […] nm
[2] = tested on: CC1=CC(=O)c2ccccc2C1=O; assay: purified protein
[3] = tested on: COC1=C(OC)C(=O)C(C/C=C(\C)CCC=C(C)C)=C(C)C1=O; assay: purified protein; conditions: pH 8.0
[4] = tested on: CC1=C(C)C(=O)c2ccccc2C1=O; assay: purified protein; conditions: pH 8.0
[5] = tested on: COC1=C(OC)C(=O)C(C)=CC1=O; assay: purified protein; conditions: pH 8.0
[6] = tested on: COC1=C(OC)C(=O)C(CC=C(C)C)=C(C)C1=O; assay: purified protein; conditions: pH 8.0
[7] = co-substrate 100 μM F420H2, 200 mM Tris-HCl pH 8.0, 0.01% Triton X-100

Sequence of Ddn (P9WP15 whole entry): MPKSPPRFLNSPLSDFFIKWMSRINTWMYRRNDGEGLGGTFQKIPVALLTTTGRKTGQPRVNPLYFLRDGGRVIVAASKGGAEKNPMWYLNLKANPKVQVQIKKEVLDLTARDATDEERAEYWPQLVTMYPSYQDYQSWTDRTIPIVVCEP

## O=C1C=CC(=O)c2ccccc21 [1,4-naphthoquinone]
[1]; [7]
  Km: 2.23 ± 1.19 µM

## O=[N+]([O-])c1cn2c(n1)OC[C@@H](OCc1ccc(OC(F)(F)F)cc1)C2 [PA-824]
[1]
  Km: 28.6 ± 3.55 µM

## CC1=CC(=O)c2c(O)cccc2C1=O [Plumbagin]
[1]; [7]
  Km: 2.17 ± 2.74 µM

## (Mycobacterium tuberculosis H37Rv)
[2]
  Km: 2.09 ± 0.91 µM
  kcat/Km: 255000 M⁻¹ s⁻¹
[2]; pH 8.0
  Km: 3.44 ± 1.27 µM
  kcat/Km: 86000 M⁻¹ s⁻¹
[3]
  Km: 3.14 ± 0.97 µM
  kcat/Km: 28800 M⁻¹ s⁻¹
[4]
  Km: 2.21 ± 0.98 µM
  kcat/Km: 40500 M⁻¹ s⁻¹
[5]
  Km: 12.35 ± 2.65 µM
  kcat/Km: 1670 M⁻¹ s⁻¹
[6]
  Km: 10.12 ± 2.23 µM
  kcat/Km: 3500 M⁻¹ s⁻¹
